Laboratory results taken from the supplement of paper PMC11316812.
± gives the standard deviation of the averaged measurements.

Tests used:
MCF7 = test: percentage of EdU-negative (G0-arrested) nuclei per well, 72 h; higher = more G0 arrest; conditions: reference: sequence is the full UniProt precursor, the tested protein was the secreted form or ectodomain
hTERT-HMEC = test: as above; conditions: reference: sequence is the full UniProt precursor, the tested protein was the secreted form or ectodomain
[1] = protein concentration 0.0114286 µM
[2] = protein concentration 0.114286 µM
[3] = protein concentration 0.0357143 µM
[4] = protein concentration 0.357143 µM
[5] = protein concentration 0.0225 µM
[6] = protein concentration 0.01975 µM
[7] = protein concentration 0.1975 µM
[8] = protein concentration 0.02625 µM
[9] = protein concentration 0.2625 µM
[10] = protein concentration 0.0257143 µM
[11] = protein concentration 0.257143 µM
[12] = protein concentration 0.01025 µM
[13] = protein concentration 0.1025 µM
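Also: secreted proteins added to cultured cells, EdU pulse at the end, nuclei found by Hoechst imaging, EdU status from nuclear versus surrounding ring intensity ratio, PBS as neutral control.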

H7BXV5 was tested, and the “percentage of EdU-negative” value (MCF7; [1]) was 23 ± 0.76%, the “percentage of EdU-negative” value (MCF7; [2]) was 23.83 ± 0.21% and the “percentage of EdU-negative” value (hTERT-HMEC; [1]) was 4.71 ± 0.48%. The “percentage of EdU-negative” value (hTERT-HMEC; [2]) was 7.28 ± 0.91%.
In the case of “MAAAAATKILLCLPLLLLLSGWSRAGRADPHSLCYDITVIPKFRPGPRWCAVQGQVDEKTFLHYDCGNKTVTPVSPLGKKLNVTTAWKAQNPVLREVVDILTEQLRDIQLENYTPKEPLTLQARMSCEQKAEGHSSGSWQFSFDGQIFLLFDSEKRMWTTVHPGARKMKEKWENDKVVAMSFHYFSMGDCIGWLEDFLMGMDSTLEPSAGAPLAMSSGTTQLRATATTLILCCLLIILPCFILPGI [Q9BZM5]”, the “percentage of EdU-negative” value (MCF7; [3]) is reported as 22.2 ± 0.6%, the “percentage of EdU-negative” value (MCF7; [4]) is reported as 25.5 ± 0.78% and the “percentage of EdU-negative” value (hTERT-HMEC; [3]) is reported as 4.46 ± 0.35%. The “percentage of EdU-negative” value (hTERT-HMEC; [4]) was 5.89 ± 0.34%.
For “MAAAAMAAAAGGGAGAARSLSRFRGCLAGALLGDCVGSFYEAHDTVDLTSVLRHVQSLEPDPGTPGSERTEALYYTDDTAMARALVQSLLAKEAFDEVDMAHRFAQEYKKDPDRGYGAGVVTVFKKLLNPKCRDVFEPARAQFNGKGSYGNGGAMRVAGISLAYSSVQDVQKFARLSAQLTHASSLGYNGAILQALAVHLALQGESSSEHFLKQLLGHMEDLEGDAQSVLDARELGMEERPYSSRLKKIGELLDQASVTREEVVSELGNGIAAFESVPTAIYCFLRCMEPDPEIPSAFNSLQRTLIYSISLGGDTDTIATMAGAIAGAYYGMDQVPESWQQSCEGYEETDILAQSLHRVFQKS [Q9NX46]”, the “percentage of EdU-negative” value (MCF7; [5]) was 24.5 ± 2.2%, the “percentage of EdU-negative” value (MCF7; protein concentration 0.225 µM) was 29.1 ± 3.5% and the “percentage of EdU-negative” value (hTERT-HMEC; [5]) was 4.73 ± 1.1%. The “percentage of EdU-negative” value (hTERT-HMEC; protein concentration 0.225 µM) was 7.08 ± 0.11%.
“MAAAASPAFLLCLPLLHLLSGWSRAGWVDTHCLCYDFIITPKSRPEPQWCEVQGLVDERPFLHYDCVNHKAKAFASLGKKVNVTKTWEEQTETLRDVVDFLKGQLLDIQVENLIPIEPLTLQARMSCEHEAHGHGRGSWQFLFNGQKFLLFDSNNRKWTALHPGAKKMTEKWEKNRDVTMFFQKISLGDCKMWLEEFLMYWEQMLDPTKPPSLAPGTTQPKAMATTLSPWSLLIIFLCFILAGR [Q9BZM6]” was tested, and the “percentage of EdU-negative” value (MCF7; [6]) was 24.2 ± 1.6%, the “percentage of EdU-negative” value (MCF7; [7]) was 25.4 ± 1.1% and the “percentage of EdU-negative” value (hTERT-HMEC; [6]) was 4.75 ± 0.89%. For the same substance, the “percentage of EdU-negative” value (hTERT-HMEC; [7]) was 6.21 ± 1.1%.
“MAAAASPAILPRLAILPYLLFDWSGTGRADAHSLWYNFTIIHLPRHGQQWCEVQSQVDQKNFLSYDCGSDKVLSMGHLEEQLYATDAWGKQLEMLREVGQRLRLELADTELEDFTPSGPLTLQVRMSCECEADGYIRGSWQFSFDGRKFLLFDSNNRKWTVVHAGARRMKEKWEKDSGLTTFFKMVSMRDCKSWLRDFLMHRKKRLEPTAPPTMAPGLAQPKAIATTLSPWSFLIILCFILPGI [Q9BZM4]” was tested, and the “percentage of EdU-negative” value (MCF7; [8]) was 25.38 ± 0.21%, the “percentage of EdU-negative” value (MCF7; [9]) was 27.9 ± 1.3% and the “percentage of EdU-negative” value (hTERT-HMEC; [8]) was 5.34 ± 0.19%. For the same substance, the “percentage of EdU-negative” value (hTERT-HMEC; [9]) was 4.8 ± 0.37%.
In the case of “MAAALFVLLGFALLGTHGASGAAGFVQAPLSQQRWVGGSVELHCEAVGSPVPEIQWWFEGQGPNDTCSQLWDGARLDRVHIHATYHQHAASTISIDTLVEEDTGTYECRASNDPDRNHLTRAPRVKWVRAQAVVLVLEPGTVFTTVEDLGSKILLTCSLNDSATEVTGHRWLKGGVVLKEDALPGQKTEFKVDSDDQWGEYSCVFLPEPMGTANIQLHGPPRVKAVKSSEHINEGETAMLVCKSESVPPVTDWAWYKITDSEDKALMNGSESRFFVSSSQGRSELHIENLNMEADPGQYRCNGTSSKGSDQAIITLRVRSHLAALWPFLGIVAEVLVLVTIIFIYEKRRKPEDVLDDDDAGSAPLKSSGQHQNDKGKNVRQRNSS”, the “percentage of EdU-negative” value (MCF7; [5]) is reported as 22.7 ± 2.4%, the “percentage of EdU-negative” value (MCF7; protein concentration 0.225 µM) is reported as 25.2 ± 1.3% and the “percentage of EdU-negative” value (hTERT-HMEC; [5]) is reported as 5.59 ± 0.91%. The “percentage of EdU-negative” value (hTERT-HMEC; protein concentration 0.225 µM) was 5.94 ± 1.8%.
In the case of “MAAARLCLSLLLLSTCVALLLQPLLGAQGAPLEPVYPGDNATPEQMAQYAADLRRYINMLTRPRYGKRHKEDTLAFSEWGSPHAAVPRELSPLDL”, the “percentage of EdU-negative” value (MCF7; [10]) is reported as 20.5 ± 1.5%, the “percentage of EdU-negative” value (MCF7; [11]) is reported as 23.4 ± 3.6% and the “percentage of EdU-negative” value (hTERT-HMEC; [10]) is reported as 5.37 ± 1.1%. The “percentage of EdU-negative” value (hTERT-HMEC; [11]) was 5.93 ± 0.18%.
With “MAAATGPSFWLGNETLKVPLALFALNRQRLCERLRKNPAVQAGSIVVLQGGEETQRYCTDTGVLFRQESFFHWAFGVTEPGCYGVIDVDTGKSTLFVPRLPASHATWMGKIHSKEHFKEKYAVDDVQYVDEIASVLTSQKPSVLLTLRGVNTDSGSVCREASFDGISKFEVNNTILHPEIVECRVFKTDMELEVLRYTNKISSEAHREVMKAVKVGMKEYELESLFEHYCYSRGGMRHSSYTCICGSGENSAVLHYGHAGAPNDRTIQNGDMCLFDMGGEYYCFASDITCSFPANGKFTADQKAVYEAVLRSSRAVMGAMKPGVWWPDMHRLADRIHLEELAHMGILSGSVDAMVQAHLGAVFMPHGLGHFLGIDVHDVGGYPEGVERIDEPGLRSLRTARHLQPGMVLTVEPGIYFIDHLLDEALADPARASFLNREVLQRFRGFGGVRIEEDVVVTDSGIELLTCVPRTVEEIEACMAGCDKAFTPFSGPK” the “percentage of EdU-negative” value (MCF7; [12]) was 26 ± 1%, the “percentage of EdU-negative” value (MCF7; [13]) was 27.3 ± 1.4% and the “percentage of EdU-negative” value (hTERT-HMEC; [12]) was 5.01 ± 0.5%. The “percentage of EdU-negative” value (hTERT-HMEC; [13]) was 4.28 ± 0.51%.
